From patent publication US7241581B2, “Methods of identifying compounds that modulate IL-4 receptor-mediated IgE synthesis utilizing a c-MYC protein” (Rigel Pharmaceuticals, Inc., priority 2002, dated 2007)

Biological target: T1, human c-Myc protein (Homo sapiens, UniProt P01106)
T1 construct: expressed in transfected cells; prey cDNA library made from the A5T4 reporter line (human BJAB B-cells)
Assay: Yeast two hybrid (YTH) interaction assay, β-galactosidase
Type: binding
Method: Potential binding partners for peptide BR10A1 wt were identified in a β-galactosidase yeast two-hybrid (YTH) assay using peptide BR10A1 wt as bait and a cDNA library constructed from the A5T4 reporter cell line as prey. Binding was assessed by β-galactosidase quantification using BetaFluor (Novagen) as a substrate. A negative interaction control (no cDNA fused downstream of the GAL4 activation domain sequence) was also run. A general outline of the YTH assay is illustrated in FIG. 5A. Following clustering, filtering to remove non-specific bait hits (e.g., GFP and BFP), singletons and clusters recognized by 10 or more cDNA baits (based upon historical YTH assays), and prioritization, 30 prey clones were identified as hits.
Potential targets identified in the YTH assay were reconfirmed as generally outlined in FIG. 6. The cDNA clones identified as hits in the YTH assay were purified and rescreened for interaction with the BR10A1 wt peptide in a YTH assay. The hit clones were also screened in a control assay for interaction with the BFP using a vector (pGBKT7) that contained only the BFP and not the BR10A1 peptide. At this stage, 25 putative target clones remained.
The interaction of BR10A1 wt peptide and its mutants with the clones identified as potential targets for the peptide BR10A1 wt was then quantified in a β-galactosidase YTH assay. The YTH assay was performed in the manner described above. A general outline of this YTH assay is illustrated in FIG. 5B. For each clone tested, an interaction profile was developed by comparing the β-galactosidase activity of each mutant to that of the wild type peptide as described above.
The interaction of selected IOF, ROF and LOF mutants with different polypeptides encoded by the putative target clones were quantified using the YTH assay described above. Based on the YTH assay, for each putative target, the mutants were categorized into the following four interaction categories: (1) reduction of interaction (ROI); (2) loss of interaction (LOI); (3) increase of interaction (IOI); and (4) interactionally neutral (N), by assessing the binding affinity ratio of the mutant peptide and the wild type peptide (β-gal activity of mutant/wild type) to the putative target. The selection criteria for categorizing the interactions is shown on FIG. 8.

T1 sequence (P01106 whole entry): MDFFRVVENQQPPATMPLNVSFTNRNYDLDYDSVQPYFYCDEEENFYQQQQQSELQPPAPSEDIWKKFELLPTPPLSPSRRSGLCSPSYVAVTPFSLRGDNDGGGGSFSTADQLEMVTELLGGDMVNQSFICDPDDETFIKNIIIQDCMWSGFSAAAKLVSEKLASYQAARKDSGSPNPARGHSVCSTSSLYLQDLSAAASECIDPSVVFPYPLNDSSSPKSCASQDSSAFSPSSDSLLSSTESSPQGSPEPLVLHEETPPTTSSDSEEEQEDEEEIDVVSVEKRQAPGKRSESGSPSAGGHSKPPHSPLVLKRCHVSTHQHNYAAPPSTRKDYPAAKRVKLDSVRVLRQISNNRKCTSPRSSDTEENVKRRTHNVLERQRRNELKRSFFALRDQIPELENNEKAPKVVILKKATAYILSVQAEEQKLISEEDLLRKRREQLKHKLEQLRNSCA

Sequence: MQRRESCITRSVEEGWGLFYLGP (peptide encoded by random oligo-BR10A1wt) [wild-type peptide from random library, expressed in cells as BFP-peptide fusion]
- binding to human c-Myc protein in yeast two hybrid interaction assay: found to bind
